# Where no end group is shown, it is not given here.
# Target: full-length recombinant human GRP78 (glucose-regulated protein 78), N-His tagged (human) (UniProt P11021)
# Test: Biacore X SPR, 50 µM peptide over immobilised N-His GRP78; RU/MW normalised to L-peptide
# Sequence of full-length recombinant human GRP78 (glucose-regulated protein 78), N-His tagged (human) (P11021 19-654 limits assumed): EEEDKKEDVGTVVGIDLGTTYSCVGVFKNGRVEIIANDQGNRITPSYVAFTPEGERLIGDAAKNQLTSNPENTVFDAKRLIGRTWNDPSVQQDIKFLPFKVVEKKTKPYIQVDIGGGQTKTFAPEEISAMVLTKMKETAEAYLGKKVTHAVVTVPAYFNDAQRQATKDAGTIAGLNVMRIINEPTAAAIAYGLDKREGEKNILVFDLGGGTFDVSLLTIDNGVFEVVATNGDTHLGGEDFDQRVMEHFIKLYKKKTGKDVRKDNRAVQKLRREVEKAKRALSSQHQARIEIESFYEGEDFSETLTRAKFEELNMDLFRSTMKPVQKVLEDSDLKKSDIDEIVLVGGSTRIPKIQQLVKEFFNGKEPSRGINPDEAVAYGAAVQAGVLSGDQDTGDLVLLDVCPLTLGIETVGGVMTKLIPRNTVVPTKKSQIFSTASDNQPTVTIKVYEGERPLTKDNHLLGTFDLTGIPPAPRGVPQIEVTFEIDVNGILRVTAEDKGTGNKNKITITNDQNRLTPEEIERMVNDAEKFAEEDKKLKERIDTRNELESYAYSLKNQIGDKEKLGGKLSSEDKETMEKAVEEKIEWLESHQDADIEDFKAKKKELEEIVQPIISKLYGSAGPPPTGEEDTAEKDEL
row,Binder,Binding index
1,RLLDTNRPYLWY [PB-2],3

# Target: T1, full-length recombinant human GRP78 (glucose-regulated protein 78), N-His tagged (human, UniProt P11021 19-654, limits assumed)
# T1 construct: Immobilised on a Biacore NTA chip by Ni chelation plus amine coupling; also called His-tagged GRP78; human glucose-regulated protein 78; not shown: N-terminal His tag
# T1 sequence (P11021 19-654 limits assumed): as above
# Test: as above
# Experimental: The chip NTA and HBS-P buffer were obtained from GE Healthcare. Sensor chip NTA was prepared by combining Ni-ion chelation and covalent immobilization of N-His tagged GRP78 via amine-coupling with nitrilotriacetic acid on chip NTA (FIG. 6). To immobilize GRP78 protein on sensor chip for peptide-binding assay using Biacore, the methods based on Ni-ion chelation and amine coupling reaction were combined. Sensor chip NTA was prepared by chelation followed by covalent immobilization of N-His-tagged GRP78 via amine-coupling at the nitrilotriacetic acid group on chip NTA. The sensor chip NTA, HBS-P buffer and amine coupling kits were all obtained from GE Healthcare. First, the activation of chip surface using EDC and NHS reagents for amine coupling were according to the standard procedure from manufacturer's instruction. Additionally, one-minute pulse of NiCl₂ solution (500 μM) was used to attract His-tagged GRP78 to the surface of sensor chip and formed covalent bond subsequently in the condition of HBS-P buffer (pH 7.4). The resulting differences of RU were about 5,000˜6,000 RU. After de-activation by ethanolamine and washed with EDTA (3 mM), the prepared sensor chip was then applied to Biacore X for binding assay. The HBS-P buffer containing 1 mM Gly was used as running buffer for binding assay. Solution of 20 mM sodium hydroxide dissolved in running buffer was used to regenerate the chip surface by one-minute pulse.
# The sensor chip thus prepared was applied to Biacore X for determining the binding between the peptides and GRP78. The HBS-P buffer containing 1 mM Gly was used as a running buffer. A solution of 20 mM sodium hydroxide dissolved in the running buffer was used to regenerate chip surface by 1-minute pulses.
row,Binder,Binding index
1,"RLLDTNRPLLPY (synthetic 12-mer, lead peptide; also called positive control) [L-peptide]",1
2,RLLDTNRPLLGY [P-11],0.77
3,RLLDTNRPLLLY [P-14],0.21
4,RLLDTNRPWLPY [PA-1],0.35
5,RLLDTNRPNLPY [PA-4],0.31
6,RLLDTNRPQLPY [PA-5],0.3
7,RLLDTNRPHLPY [PA-6],0.47
8,RLLDTNRPFLWY [PB-1],1.6
9,RLLDTNRPLLPY-NH2 [PB-3],1.15

# Reference: patent publication US20160321394A1 (ACADEMIA SINICA, published 2016)
